One data set deals with T1, AGO9 D632A (Arabidopsis thaliana, UniProt Q84VQ0 1-896, D632A).
T1 sequence: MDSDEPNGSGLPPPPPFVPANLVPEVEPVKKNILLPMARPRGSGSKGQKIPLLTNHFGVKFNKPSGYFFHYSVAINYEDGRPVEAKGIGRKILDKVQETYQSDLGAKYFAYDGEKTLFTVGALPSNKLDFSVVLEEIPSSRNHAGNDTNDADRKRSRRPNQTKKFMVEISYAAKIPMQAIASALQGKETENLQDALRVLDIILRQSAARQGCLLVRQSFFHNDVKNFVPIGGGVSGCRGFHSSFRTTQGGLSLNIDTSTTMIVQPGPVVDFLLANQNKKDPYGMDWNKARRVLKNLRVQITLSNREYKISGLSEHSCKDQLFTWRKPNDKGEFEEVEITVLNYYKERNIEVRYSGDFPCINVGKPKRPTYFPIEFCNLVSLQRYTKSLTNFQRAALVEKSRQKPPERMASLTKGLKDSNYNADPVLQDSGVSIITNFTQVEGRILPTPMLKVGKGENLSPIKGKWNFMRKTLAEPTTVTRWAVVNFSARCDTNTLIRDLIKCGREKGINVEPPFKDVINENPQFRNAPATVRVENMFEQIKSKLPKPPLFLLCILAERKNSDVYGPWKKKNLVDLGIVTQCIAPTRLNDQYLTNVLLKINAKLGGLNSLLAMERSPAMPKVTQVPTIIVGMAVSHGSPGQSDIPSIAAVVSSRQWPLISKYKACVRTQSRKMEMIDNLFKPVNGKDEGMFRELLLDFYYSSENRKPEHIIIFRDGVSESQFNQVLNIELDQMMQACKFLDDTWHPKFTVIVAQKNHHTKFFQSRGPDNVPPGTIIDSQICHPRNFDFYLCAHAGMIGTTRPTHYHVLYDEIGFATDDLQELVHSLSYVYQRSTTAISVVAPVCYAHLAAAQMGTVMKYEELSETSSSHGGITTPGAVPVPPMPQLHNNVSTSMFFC
As to the kind of experiment: filter binding; 100 mM KOAc, 18 mM HEPES pH 7.4, 3 mM Mg(OAc)2, 5 mM DTT, 0.01% IGEPAL CA-630, 0.01 mg/ml yeast tRNA; 20 pM target; 25 C, 1 h. The note with it: protein: ivt; tags: N-terminal 3xFLAG-SUMO, removed by SUMOstar elution; label: target 3' 32P-cordycepin; target 28 nt.

For the next data set, the target named is T2, AGO6 D623A (Arabidopsis thaliana, UniProt O48771 1-878, D623A).
T2 sequence: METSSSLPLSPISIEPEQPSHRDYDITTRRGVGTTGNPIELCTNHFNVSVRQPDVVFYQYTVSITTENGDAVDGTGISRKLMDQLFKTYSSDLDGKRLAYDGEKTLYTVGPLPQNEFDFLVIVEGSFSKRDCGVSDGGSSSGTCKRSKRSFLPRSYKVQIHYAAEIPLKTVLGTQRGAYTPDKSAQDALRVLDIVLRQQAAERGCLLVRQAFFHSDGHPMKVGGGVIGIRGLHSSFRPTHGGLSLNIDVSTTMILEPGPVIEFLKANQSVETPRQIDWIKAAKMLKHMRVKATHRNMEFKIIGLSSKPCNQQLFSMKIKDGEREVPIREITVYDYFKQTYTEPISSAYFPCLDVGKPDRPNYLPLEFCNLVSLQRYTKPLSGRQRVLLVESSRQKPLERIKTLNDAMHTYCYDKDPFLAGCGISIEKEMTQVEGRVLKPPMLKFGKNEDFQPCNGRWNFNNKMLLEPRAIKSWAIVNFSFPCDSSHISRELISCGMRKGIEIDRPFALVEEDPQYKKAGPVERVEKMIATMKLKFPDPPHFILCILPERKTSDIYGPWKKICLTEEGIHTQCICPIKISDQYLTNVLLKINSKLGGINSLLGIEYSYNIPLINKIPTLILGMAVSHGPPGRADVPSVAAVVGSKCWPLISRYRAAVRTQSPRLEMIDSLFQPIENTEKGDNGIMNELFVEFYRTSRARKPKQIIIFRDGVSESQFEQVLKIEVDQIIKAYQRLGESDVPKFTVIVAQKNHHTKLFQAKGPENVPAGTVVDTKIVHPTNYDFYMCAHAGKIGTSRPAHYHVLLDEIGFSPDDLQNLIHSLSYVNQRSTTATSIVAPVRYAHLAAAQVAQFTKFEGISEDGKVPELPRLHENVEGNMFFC
The description is as above. The note with it: protein: ivt; tags: N-terminal 3xFLAG-SUMO, removed by SUMOstar elution; label: target 3' 32P-cordycepin; target 28 nt.

The target of data set [1] is T3, AGO4 D660A (Arabidopsis thaliana, UniProt Q9ZVD5 1-924, D660A).
T3 sequence: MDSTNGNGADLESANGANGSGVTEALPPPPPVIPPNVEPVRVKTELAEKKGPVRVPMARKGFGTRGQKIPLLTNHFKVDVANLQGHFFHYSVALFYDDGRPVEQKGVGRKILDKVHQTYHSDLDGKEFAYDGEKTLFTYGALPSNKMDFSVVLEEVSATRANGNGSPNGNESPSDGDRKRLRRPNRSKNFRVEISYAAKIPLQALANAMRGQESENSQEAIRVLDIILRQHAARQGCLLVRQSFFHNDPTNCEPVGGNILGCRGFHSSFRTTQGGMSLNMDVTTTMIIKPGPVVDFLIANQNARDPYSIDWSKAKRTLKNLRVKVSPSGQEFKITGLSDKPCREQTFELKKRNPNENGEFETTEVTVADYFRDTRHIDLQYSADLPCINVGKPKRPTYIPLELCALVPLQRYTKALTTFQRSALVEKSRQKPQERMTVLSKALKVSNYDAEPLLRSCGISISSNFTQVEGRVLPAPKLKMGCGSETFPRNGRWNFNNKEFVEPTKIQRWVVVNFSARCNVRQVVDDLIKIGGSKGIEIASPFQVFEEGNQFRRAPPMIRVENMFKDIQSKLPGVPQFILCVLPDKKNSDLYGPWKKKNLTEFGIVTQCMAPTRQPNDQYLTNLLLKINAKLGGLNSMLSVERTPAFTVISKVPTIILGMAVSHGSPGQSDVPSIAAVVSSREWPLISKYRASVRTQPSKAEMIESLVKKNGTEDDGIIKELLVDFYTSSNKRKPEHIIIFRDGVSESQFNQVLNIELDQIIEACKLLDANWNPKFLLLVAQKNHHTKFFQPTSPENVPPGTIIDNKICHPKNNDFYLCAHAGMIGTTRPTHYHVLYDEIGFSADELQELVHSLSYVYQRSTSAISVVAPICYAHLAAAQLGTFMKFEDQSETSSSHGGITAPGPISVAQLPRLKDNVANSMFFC
The data set is described as above. The note with it: protein: ivt, tags: N-terminal 3xFLAG-SUMO, removed by SUMOstar elution, label: target 3' 32P-cordycepin; for Kd: target 28 nt.

The target in data set [2] is T3, AGO4 D660A. As to the kind of experiment: filter binding; did not bind at all; 100 mM KOAc, 18 mM HEPES pH 7.4, 3 mM Mg(OAc)2, 5 mM DTT, 0.01% IGEPAL CA-630, 0.01 mg/ml yeast tRNA; 20 pM target; 25 C, 1 h. The note with it: protein: ivt; tags: N-terminal 3xFLAG-SUMO, removed by SUMOstar elution; label: target 3' 32P-cordycepin; only g2-g8 paired.
Data set [3] addresses T3, AGO4 D660A. The data set can be described thus: filter binding; 100 mM KOAc, 18 mM HEPES pH 7.4, 3 mM Mg(OAc)2, 5 mM DTT, 0.01% IGEPAL CA-630, 0.01 mg/ml yeast tRNA; 20 pM target; 25 C, 1 h. The note with it: protein: ivt; tags: N-terminal 3xFLAG-SUMO, removed by SUMOstar elution; label: target 3' 32P-cordycepin; mismatch at g20-g21.

B1: 24-nt 5'A guide / t1T DNA (DNA:RNA)
RNA: AGAGGUAGAUCCUUGUAUAGUCUC
DNA: ACGAGACTATACAAGGATCTACCTCTCAA
modifications: guide 3' 2'-O-methyl
A word on the Kd: it is a measure of binding affinity in units of concentration. The low end stands for a tighter complex, the high end for a looser complex. Consider B1, for which the Kd came to 2.12 pM with AGO9 D632A, 7.3 pM with AGO6 D623A and 0.93 pM in the data set with AGO4 D660A [1].

B2: 24-nt 5'A guide / mm6-7 DNA (DNA:RNA)
RNA: AGAGGUAGAUCCUUGUAUAGUCUC
DNA: ACGAGACTATACAAGGATCATCCTCTCAA
modifications: guide 3' 2'-O-methyl
For B2, the binding result in the data set with AGO4 D660A [1] (mismatch at g6-g7) is given as “binds”.

B3: 24-nt 5'A guide / mm20-21 DNA (DNA:RNA)
RNA: AGAGGUAGAUCCUUGUAUAGUCUC
DNA: ACGAGTGTATACAAGGATCTACCTCTCAA
modifications: guide 3' 2'-O-methyl
For B3, the binding result in the data set with AGO4 D660A [1] (mismatch at g20-g21) is “binds”.

B4: 24-nt 5'A guide / mm8-9 DNA (DNA:RNA)
RNA: AGAGGUAGAUCCUUGUAUAGUCUC
DNA: ACGAGACTATACAAGGAAGTACCTCTCAA
modifications: guide 3' 2'-O-methyl
With B4, in the data set with AGO4 D660A [1] (mismatch at g8-g9), the binding result is reported as “binds”.

B5: 24-nt 5'A guide / t1U RNA (dsRNA)
RNA 1: AGAGGUAGAUCCUUGUAUAGUCUC
RNA 2: ACGAGACUAUACAAGGAUCUACCUCUCAA
modifications: guide 3' 2'-O-methyl
In the case of B5, the Kd with AGO9 D632A came out at 12.7 pM; in the data set with AGO6 D623A, 50.4 pM; in the data set with AGO4 D660A [1], 1.71 pM.

B6: 24-nt 5'A guide / mm23-24 DNA (DNA:RNA)
RNA: AGAGGUAGAUCCUUGUAUAGUCUC
DNA: ACCTGACTATACAAGGATCTACCTCTCAA
modifications: guide 3' 2'-O-methyl
As for B6, the binding result with AGO4 D660A [1] (mismatch at g23-g24) is recorded as “binds”.

B7: 24-nt 5'A guide / seed-only (2-8) DNA (DNA:RNA)
RNA: AGAGGUAGAUCCUUGUAUAGUCUC
DNA: ACCTCTGATATGTTCCTACTACCTCTCAA
modifications: guide 3' 2'-O-methyl
For B7, the binding result in the data set with AGO4 D660A [2] is “no binding”.

B8: 24-nt 5'A guide / seed-only (2-8) RNA (dsRNA)
RNA 1: AGAGGUAGAUCCUUGUAUAGUCUC
RNA 2: ACCUCUGAUAUGUUCCUACUACCUCUCAA
modifications: guide 3' 2'-O-methyl
Take B8: the binding result with AGO4 D660A [2] is “no binding”.

B9: 24-nt 5'A guide / mm20-21 RNA (dsRNA)
RNA 1: AGAGGUAGAUCCUUGUAUAGUCUC
RNA 2: ACGAGUGUAUACAAGGAUCUACCUCUCAA
modifications: guide 3' 2'-O-methyl
In the case of B9, the binding signal with AGO4 D660A [3] is ~10 fold lower affinity than t1U.

The values are drawn from publication PMC11194062, “The clade-specific target recognition mechanisms of plant RISCs”.
